Experiments:
[1] = target: HXBc2 gp160?CT glycoprotein (HIV-1 isolate HXBc2; bovine rhodopsin) (UniProt P04578); assay: FACS titration, anti-human IgG PE
[2] = target: cleavage-defective YU2 gp160?CT glycoprotein (HIV-1 isolate YU2; bovine rhodopsin) (UniProt P35961); assay: FACS titration; saturation not reached with C11
[3] = target: Cleavage-competent YU2 gp160?CT glycoprotein (HIV-1 isolate YU2; bovine rhodopsin) (UniProt P35961); assay: FACS on 293T cells, with against without sCD4 preincubation (without = 100%)
[4] = target: cleavage-defective YU2 gp160?CT glycoprotein (HIV-1 isolate YU2; bovine rhodopsin) (UniProt P35961); assay: FACS on PLs, with against without sCD4 preincubation (without = 100%)
[5] = target: cleavage-defective YU2 gp160?CT glycoprotein (HIV-1 isolate YU2; bovine rhodopsin) (UniProt P35961); assay: FACS titration on gp160?CT PLs / 293T cells, half-maximal binding

2F5 antibody was tested. Which fold higher affinity on PLs with a reconstituted membrane than on beads without a membrane [1] did it give?
Its fold higher affinity on PLs with a reconstituted membrane than on beads without a membrane is 10 fold.

With C11 antibody as the substance, how does the fold lower affinity than IgG1b12 [2] read?
Its fold lower affinity than IgG1b12 is over 10 fold.

Which % increase of 17b binding after preincubation with sCD4 [3] does the source give for 17b antibody here?
Its % increase of 17b binding after preincubation with sCD4 is 63%.

And the % increase of 17b binding after preincubation with sCD4 [4]?
The % increase of 17b binding after preincubation with sCD4 was 46%.

IgG1b12 antibody was tested. Which EC50 [5] did it give?
The EC50 was 6 nM.

From patent publication US20040109887A1
